The record followed here is US20100015637A1 (AbbVie / Abbott, published 2010).

This test concerns the target human PlGF-1 comprising amino acids 1-137 produced in human embryonic kidney cells (human) (UniProt P49763). The experiment in a line: Format 1 …, capture 2-826-335, detection 1-255-713; sFlt-1 153 pmol/L (ratio 5).

“native sFlt-1, isolated from human placental tissue (from UniProt P17948 27-687) (receptor)”: the % Inhibition (in general, the relative decrease from the control value, in per cent) was found to be 64.1% and the PlGF-1 Measured was 367 pg/mL.
